pKi: −log10 of the molar value.
Molecular target: human thrombin (human) (UniProt P00734)
Experiment: cell-based or functional assay

inhibition of the amidase activity of thrombin at 250 nM peptide [%]	inhibition of the amidase activity of thrombin at 1 µM peptide [%]	Substance
–	44	N-acetyl-L-Tyr-D-Pro-L-Cha-D-Pro-D-Tyr-L-Arg amide (peptide)
90	–	N-acetyl-L-Cha-D-Cha-L-Aze-D-Tyr-L-Har amide (peptide)
–	45	N-acetyl-D-Val-L-Cha-D-Pro-D-Tyr-L-Arg amide (peptide)
75	–	N-acetyl-L-Dcp-D-Cha-L-Aze-D-Tyr-L-Har amide (peptide)
72	–	N-acetyl-L-Iq3-D-Cha-L-Aze-D-Tyr-L-Har amide (peptide)
89	–	N-acetyl-L-Nle-D-Cha-L-Aze-D-Tyr-L-Har amide (peptide)
–	59	N-acetyl-D-Gln-D-His-L-Cha-D-Pro-D-Tyr-L-Arg amide (peptide)
76	–	N-acetyl-L-Trp-D-Cha-L-Aze-D-Tyr-L-Har amide (peptide)
–	61	N-acetyl-L-Ile-L-Arg-L-Cha-D-Pro-D-Tyr-L-Arg amide (peptide)
–	55	N-acetyl-L-Tyr-L-Cit-L-Cha-D-Pro-D-Tyr-L-Arg amide (peptide)

The remaining lines, values behind:

Substance	inhibition of the amidase activity of thrombin at 250 nM peptide [%]	inhibition of the amidase activity of thrombin at 1 µM peptide [%]
N-acetyl-L-Phg-D-Cha-L-Aze-D-Tyr-L-Har amide (peptide)	95	–
N-acetyl-D-Val-D-His-L-Cha-D-Pro-D-Tyr-L-Arg amide (peptide)	–	51
N-acetyl-D-Lys-L-Nle-L-Cha-D-Pro-D-Tyr-L-Arg amide (peptide)	–	48
N-acetyl-L-Ala-D-Cha-L-Pro-D-Tyr-L-Har amide (peptide)	–	56
N-acetyl-L-Ser-L-Ser-L-Cha-D-Pro-D-Tyr-L-Arg amide (peptide)	–	40
N-acetyl-L-Arg-L-Cha-D-Pro-D-Tyr-L-Arg amide (peptide)	–	47
N-acetyl-L-Trp-L-Cha-D-Pro-D-Tyr-L-Arg amide (peptide)	–	63
N-acetyl-D-Tyr-L-Cha-D-Pro-D-Tyr-L-Arg amide (peptide)	–	47
N-acetyl-L-Ser-L-Ala-L-Cha-D-Pro-D-Tyr-L-Arg amide (peptide)	–	47
N-acetyl-L-Ala-D-Cha-L-Aze-D-Tyr-L-Arg amide (peptide)	–	63
N-acetyl-D-Glu-L-Cha-D-Pro-D-Tyr-L-Arg amide (peptide)	–	58
N-acetyl-L-Tea-D-Cha-L-Aze-D-Tyr-L-Har amide (peptide)	74	–
N-acetyl-L-Ala-D-Cha-L-Aze-D-Tyr-L-Har amide (peptide)	77	–
N-acetyl-L-Ppd-D-Cha-L-Aze-D-Tyr-L-Har amide (peptide)	76	–
N-acetyl-L-Pnp-D-Cha-L-Aze-D-Tyr-L-Har amide (peptide)	72	–
N-acetyl-L-Ala-L-Cha-D-Pro-D-Tyr-L-Arg amide (peptide)	–	44
N-acetyl-L-Nhm-D-Cha-L-Aze-D-Tyr-L-Har amide (peptide)	80	–
N-acetyl-L-Ser-L-Arg-L-Cha-D-Pro-D-Tyr-L-Arg amide (peptide)	–	51
N-acetyl-D-Phe-D-Cha-L-Aze-D-Tyr-L-Har amide (peptide)	77	–

Molecular target: human thrombin (human) (UniProt P00734)
Experiment: competitive inhibition of human thrombin hydrolysis of the fluorogenic substrate Tos-Gly-Pro-Arg-AMC, Hanes analysis

pKi	Substance
8.52	Trans-4-(guanidinomethyl)cyclohexanecarboxylic acid-D-Cha-L-Aze-D-Try-L-Har amide (peptide)
8.15	Tranexamic acid-D-Cha-L-Aze-D-Try-L-Har amide (peptide)
